Laboratory results published in patent publication US12427163B2, “Anti-VTCN1 antibodies and antibody drug conjugates” (Bluefin BioMedicine, Inc., priority 2017, dated 2025).
“Also recorded” adds a separate entry of the source.

Experiments:
human VTCN1 protein = biological target: T1, human VTCN1 protein (Homo sapiens, UniProt Q7Z7D3); experiment: Affinity to recombinant VTCN1-his by OCTET Red (Protein A biosensors); assay type: binding; conditions: Table 5
T1 construct: His
T1 sequence (Q7Z7D3 25-282): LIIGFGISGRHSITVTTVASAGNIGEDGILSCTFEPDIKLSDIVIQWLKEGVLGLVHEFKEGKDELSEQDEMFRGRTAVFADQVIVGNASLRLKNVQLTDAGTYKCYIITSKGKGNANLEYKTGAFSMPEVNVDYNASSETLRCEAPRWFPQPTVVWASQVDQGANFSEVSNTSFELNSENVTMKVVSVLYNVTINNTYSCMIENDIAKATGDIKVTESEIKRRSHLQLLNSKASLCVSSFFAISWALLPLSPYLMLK
Description: The affinity of antibodies to recombinant VTCN1 was determined on an OCTET™ Red (Pall, ForteBio) instrument. After loading reagents into a 96-well plate, the OCTET™ Red with Protein A-conjugated biosensors was programmed as follows: 30 seconds for baseline #1; 45 seconds to immobilize the antibody; 30 seconds for baseline #2; 300 seconds for association of antibody to recombinant VTCN1-his; and 300 seconds for dissociation of recombinant VTCN1-his from the antibody. Table 5 lists the affinity measured for selected antibodies.

Hepa1-6 tumors = experiment: Hepa 1-6 mouse hepatoma tumor model; assay type: in vivo; conditions: 10 mg/kg ip. twice a week, 7 doses, from day 8
Description: The same proteomics and immunohistochemistry analysis used in Example 1 and Example 12 were also used to analyze tumors harvested from mice subcutaneously injected with Hepa 1-6 mouse hepatoma cells, and these tumors were fount to express VTCN1. To test the efficacy of anti-VTCN1 antibodies in this alternate syngeneic tumor model, 6-8 week old C57BL/6 female mice were injected with 2.5 million Hepa1-6 cells in matrigel. On day 8 after tumor cell implantation, when tumors were 100-200 mm3, tumor-bearing mice were randomized to two treatment groups and received either the isotype control, mIgG2a or the anti-VTCN1 antibody 6D9. Treatment was started on day 8 with mice receiving 10 mg/kg of antibody by ip. injection. Mice were treated at this dose level and route twice a week for a total of 7 doses. Tumor volume and body weight were recorded twice a week.

mouse VTCN1 protein = biological target: T2, mouse VTCN1 protein (Mus musculus, UniProt Q7TSP5); experiment: Cross-reactivity with mouse VTCN1 protein (method not given); assay type: binding
T2 construct: His
T2 sequence (Q7TSP5 25-257): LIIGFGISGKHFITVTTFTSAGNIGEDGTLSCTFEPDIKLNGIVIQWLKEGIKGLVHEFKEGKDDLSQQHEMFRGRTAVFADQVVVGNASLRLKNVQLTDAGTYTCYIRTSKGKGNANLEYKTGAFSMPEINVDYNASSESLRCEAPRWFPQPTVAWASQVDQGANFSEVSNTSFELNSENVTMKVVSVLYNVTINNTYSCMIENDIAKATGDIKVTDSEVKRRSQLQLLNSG

4T1 tumors = experiment: 4T1 mouse triple negative breast cancer model in Balb/C mice; assay type: in vivo; conditions: 6D9 10 mg/kg, gemcitabine 75 mg/kg, i.p., days 5, 8, 12, 14, 16
Description: 6-8 week-old Balb/C mice were injected with 0.1 million of 4T1 cells in the mammary fat pad. On day 5, mice were randomized to 4 treatment groups, PBS, 6D9 (10 mg/kg), Gemcitabine (75 mg/kg), and 6D9 (10 mg/kg) plus gemcitabine (75 mg/kg). All treatments were by intraperitoneal injection and mice received a total of 5 treatments on days 5, 8, 12, 14, and 16.
The tumors and lymph nodes were harvested from these mice, and cells were dissociated and subjected to immune cell profiling by flow cytometry analysis.

KLN205 tumors = experiment: KLN205 syngeneic mouse lung squamous tumor model in DBA2 mice; assay type: in vivo; conditions: for KLN205 primary tumor growth, isotype comparison: Example 15, 200 μg (10 mg/kg) i.p. from day 9
Description: For the tumor study. 6-8 week-old female DBA2 mice were implanted subcutaneously in the right flank with 2.5×10^5 mouse lung squamous carcinoma KLN205 cells in 50% matrigel on day 0. Mice were treated with PBS as a vehicle control, a mouse IgG isotype control (10 mg/kg), or anti-VTCN1 6D9 antibody (10 mg/kg) on days 3, 6, 10, 13, 15, 17, 20, and 22 following tumor implantation by intraperitoneal (i.p.) injection. Tumors were measured using an electronic caliper twice a week and tumor volume was calculated using the formula 0.52*length*width*width. Mouse body weight was also measured and recorded.
6-8 week-old female DBA2 mice were implanted subcutaneously in the right flank with 2.5×10^5 mouse lung squamous carcinoma cell KLN205 cells in 50% matrigel on day 0. Tumors were measured on day 7 and mice are randomized to 7 treatment groups. The average size was 50 mm^3. The treatment groups were: PBS vehicle control, mIgG2a isotype control. 6D9, anti-mouse PD1 antibody RMP1-14, 6D9+RMP1-14, anti-mouse CTLA-4 antibody 9D9, and 6D9+9D9. The mice were treated on days 8, 11, 13, 15, 18, 20, 22, and 25. All antibodies were 10 mg/kg by i.p.
To test the activity of the 6D9 and 6D9-mIgG1 antibodies, 6-8 weeks old female DBA2 mice were implanted subcutaneously in the right flank with 0.2 million KLN205 cells in PBS on day 0. Mice were randomized on day 9 into 3 treatment groups, mIgG1 control. 6D9-mIgG1, 6D9-mIgG2a. Mice were treated on days 9, 11, 15, 18, and 22 by i.p. with 200 μg antibodies (10 mg/kg). […] However.

B1: 6D9: mouse anti-human VTCN1 antibody; VH SEQ ID NO: 113, VL SEQ ID NO: 117; 6D9 represents 6D9-mIgG2a if not otherwise specified (antibody, V domains shown)
VH: QIQLQQSGPGLVQPSQSLSITCTVSGFSLTSYGVQWIRQSPGKGLEWLGVIWSSGSTDYNAAFLSRLSFSKDNSKSQVFFQMNSLQADDSAIYYCARDVTTIVEGFAHWGQGTLVTVSA
VL: NIVMTQSPKSMSMSVGERVTLSCKASEKVGTYVSWYQQKPEQSPKLLIYGASNRYTGVPDRFTGSGSATDFTLTISSVQVEDLADYHCGQTYSYPFTFGSGTKLEIK
notes: mouse anti-human VTCN1 antibody; 6D9 represents 6D9-mIgG2a if not otherwise specified
Kdis (human) (human VTCN1 protein): 1.52 × 10^−3
Kon (human) (human VTCN1 protein): 6.19 × 10^5
Hepa1-6 tumor growth (Hepa1-6 tumors): inhibits primary tumor growth; also recorded: inhibits tumor growth of Hepa1-6 tumors
cross-reactivity with mouse VTCN1 protein (mouse VTCN1 protein): cross-reacts with mouse VTCN1 protein
4T1 tumor growth (4T1 tumors): did not show any effect in 4T1 tumor growth
primary tumor growth of KLN205 tumors (KLN205 tumors; Example 13, 10 mg/kg i.p. from day 3): inhibits primary tumor growth of KLN205 tumors
mice surviving at the end of the study on day 36 (KLN205 tumors; Example 14): one mouse survived
KLN205 tumor growth, established tumors (KLN205 tumors; Example 14, 10 mg/kg i.p. from day 8): delayed tumor growth
mouse survival / time to tumor end point 1500 mm^3 (KLN205 tumors; Example 15): prolongs the median time to endpoint irrespective of isotype
KLN205 primary tumor growth, isotype comparison (KLN205 tumors): inhibits primary tumor growth
KLN205 primary tumor growth, isotype comparison (KLN205 tumors; listed as 6D9-mIgG2a): inhibit primary tumor growth
